The results in this text go back to patent publication US20130330342A1 (CENTRE NATIONAL DE LA RECHERCHE SCIENTIFIQUE CNRS, published 2013).

The experiment addresses T1, CD8-Stop (UniProt P01732 22-203, limits assumed).
T1 construct: domain: CD8 receptor devoid of cytoplasmic domain; Control expressed in HeLa or 293T cells; also called CD8 protein devoid of cytoplasmic domain; control CD8-Stop protein
Kind of experiment: co-immunoprecipitation from 293T cells (anti-CD8 IP, anti-c-myc blot). As for the experimental part:
The direct recognition of Nef by sdAb Nef19 was explored at the cell level by means of coimmuno-precipitation experiments. […] These constructs have been previously described (Janvier et al., 2003a,b; Madrid et al., 2005). The same type of experiment was also carried out on cells coexpressing the sdAb and the CD8 protein devoid of cytoplasmic domain (CD8-Stop) used as a control. 24 h after transfection, the cells were lyzed in a buffer containing 100 mM of (NH₄)₂SO₄, 20 mM of Tris (pH 7.5), 10% of glycerol, 1% of IGEPAL and a cocktail of protease inhibitors (Roche). The cell lyzate (600 μg of total proteins) was incubated for 1 h at 4° C. with 3 μg of the anti-CD8 Ab (32M4, Santa Cruz) and 30 μl of beads coated with protein A-sepharose. The immunoprecipitates were then analyzed by immunoblotting using an anti-CD8 Ab (H160, Santa Cruz) and an anti-c-myc Ab (9E10).

T1 sequence (P01732 22-203 limits assumed): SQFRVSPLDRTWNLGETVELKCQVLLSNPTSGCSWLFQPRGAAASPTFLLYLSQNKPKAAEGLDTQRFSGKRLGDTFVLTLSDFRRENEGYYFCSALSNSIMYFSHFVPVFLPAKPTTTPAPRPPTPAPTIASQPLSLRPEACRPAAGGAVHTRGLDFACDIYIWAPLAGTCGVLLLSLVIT

B1: sdAb Nef19 (VHH)
VHH: EVQLVESGGGLVQPGGSLKLSCAASGSIFRANAMRWYRQAPGKQREWVASVISDDFTDYVDSVRGRFTISKDNAQNTVYLQMNSLKPEDTAVYYCNAQLGGVNYWGQGTQVTVSS
notes: Llama VHH from the immune library; The soluble form carries C-terminal c-myc and 6His tags and is detected with mAb 9E10; also called sdAb Nef19P; sdAb Nef19C
Regarding B1, the binding result was “no binding”.
